Laboratory results taken from article PMC11187873.
Several values for one entry are separate records, joined by “and”; a condition that tells them apart may be missing. Equal entries are not always repeated.

Assays:
[1] = target: PR(T26A)‐RT model precursor (HIV‐1 isolate BH10); assay: SEC-MALS
[2] = target: PR‐RT model precursor (His6‐SUMO‐Δp6*‐PR(D25A)‐RT) (HIV‐1 isolate BH10); assay: SEC-MALS

Substance: PR(T26A)‐RT model precursor (domain or fragment)
- stoichiometry N [1]: 2 and 4

Substance: PR‐RT model precursor (His6‐SUMO‐Δp6*‐PR(D25A)‐RT) (domain or fragment)
- stoichiometry N [2]: 2 and 4
